According to patent US20150203577A1 (Chugai, published 2015):
Values belong to the binder of their own block, whether it stands above or below them.

Tests used:
mouse FcγRII [1] = biological target: T1, mouse FcγRII (mouse, UniProt P08101 30-210); test: SPR (Biacore T200); KD of H237-MB630/MRAL-k0 / KD of variant
T1 construct: Extracellular domain with C-terminal His tag; also called mFcγRII; mFcgRII
T1 sequence: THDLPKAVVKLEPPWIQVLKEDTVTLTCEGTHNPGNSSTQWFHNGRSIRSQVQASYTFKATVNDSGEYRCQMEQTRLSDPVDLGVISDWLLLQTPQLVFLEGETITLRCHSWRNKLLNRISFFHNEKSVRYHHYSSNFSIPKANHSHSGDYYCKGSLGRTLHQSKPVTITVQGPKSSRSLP

mouse FcγRIII [2] = biological target: T2, mouse FcγRIII (mouse, UniProt P08508 31-215); test: as above
T2 construct: Extracellular domain with C-terminal His tag; also called mFcγRIII; mFcgRIII
T2 chain: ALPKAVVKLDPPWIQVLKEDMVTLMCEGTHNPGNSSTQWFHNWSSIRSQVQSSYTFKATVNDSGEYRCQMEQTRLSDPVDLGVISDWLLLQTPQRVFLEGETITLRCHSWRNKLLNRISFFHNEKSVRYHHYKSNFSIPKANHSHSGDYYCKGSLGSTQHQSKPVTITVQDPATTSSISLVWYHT

mouse FcγRII [3] = biological target: T1, mouse FcγRII; test: SPR (Biacore T200); KD of H237-mIgG1/MRAL-k0 / KD of variant
mouse FcγRIII [4] = biological target: T2, mouse FcγRIII; test: as above

B1: MB825 (antibody, mouse IgG1, kappa)
heavy: QVQLQESGPGLVKPSETLSLTCAVSGHSISHDHAWSWVRQPPGEGLEWIGFISYSGITNYNPSLQGRVTISRDNSKNTLYLQMNSLRAEDTAVYYCARSLARTTAMDYWGEGTLVTVSSAKTTPPSVYPLAPGSAAQTNSMVTLGCLVKGYFPEPVTVTWNSGSLSSGVHTFPAVLQSDLYTLSSSVTVPSSTWPSETVTCNVAHPASSTKVDKKIVPRDCGCKPCICEPNEVELVFIFPPKPKDVLTITLTPKVTCVVVDISKDDPEVQFSWFVDDVEVHTAQTQPREEQFNSTFRSVSELPIMHQDWLNGKEFKCRVNSDAFPAPIYKTISKTKGRPKAPQVYTIPPPKEQMAKDKVSLTCMITDFFPEDITVEWQWNGQPAENYKNTQPIMDTDGSYFVYSKLNVQKSNWEAGNTFTCSVLHEGLHNHHTEKSLSHSPGK
light: not shown
notes: CH name; VH H237 + CH, L chain MRAL-k0; copies: 2 + 2
Relative mFcγRII-binding activity (MB630 = 1) (mouse FcγRII [1]): 2.16 fold
Relative mFcγRIII-binding activity (MB630 = 1) (mouse FcγRIII [2]): 2.17 fold
relative mFcγRII-binding activity (mIgG1 = 1) (mouse FcγRII [3]): 28.4 fold
relative mFcγRIII-binding activity (mIgG1 = 1) (mouse FcγRIII [4]): 0.5 fold

B4: MB827 (antibody, mouse IgG1, kappa)
heavy: QVQLQESGPGLVKPSETLSLTCAVSGHSISHDHAWSWVRQPPGEGLEWIGFISYSGITNYNPSLQGRVTISRDNSKNTLYLQMNSLRAEDTAVYYCARSLARTTAMDYWGEGTLVTVSSAKTTPPSVYPLAPGSAAQTNSMVTLGCLVKGYFPEPVTVTWNSGSLSSGVHTFPAVLQSDLYTLSSSVTVPSSTWPSETVTCNVAHPASSTKVDKKIVPRDCGCKPCICEPNEVELVFIFPPKPKDVLTITLTPKVTCVVVDISKDDPEVQFSWFVDDVEVHTAQTQPREEQFNSTFRSVSELPIMHQDWLNGKEFKCRVNSAGFPAYIEKTISKTKGRPKAPQVYTIPPPKEQMAKDKVSLTCMITDFFPEDITVEWQWNGQPAENYKNTQPIMDTDGSYFVYSKLNVQKSNWEAGNTFTCSVLHEGLHNHHTEKSLSHSPGK
light: not shown
notes: as for B1
Relative mFcγRII-binding activity (MB630 = 1) (mouse FcγRII [1]): 1.63 fold
Relative mFcγRIII-binding activity (MB630 = 1) (mouse FcγRIII [2]): 1.64 fold
relative mFcγRII-binding activity (mIgG1 = 1) (mouse FcγRII [3]): 21.5 fold
relative mFcγRIII-binding activity (mIgG1 = 1) (mouse FcγRIII [4]): 0.38 fold

B5: MB826 (antibody, mouse IgG1, kappa)
heavy: QVQLQESGPGLVKPSETLSLTCAVSGHSISHDHAWSWVRQPPGEGLEWIGFISYSGITNYNPSLQGRVTISRDNSKNTLYLQMNSLRAEDTAVYYCARSLARTTAMDYWGEGTLVTVSSAKTTPPSVYPLAPGSAAQTNSMVTLGCLVKGYFPEPVTVTWNSGSLSSGVHTFPAVLQSDLYTLSSSVTVPSSTWPSETVTCNVAHPASSTKVDKKIVPRDCGCKPCICEPNEVELVFIFPPKPKDVLTITLTPKVTCVVVDISKDDPEVQFSWFVDDVEVHTAQTQPREEQFNSTFRSVSELPIMHQDWLNGKEFKCRVNSAGFPAFIEKTISKTKGRPKAPQVYTIPPPKEQMAKDKVSLTCMITDFFPEDITVEWQWNGQPAENYKNTQPIMDTDGSYFVYSKLNVQKSNWEAGNTFTCSVLHEGLHNHHTEKSLSHSPGK
light: not shown
notes: as for B1
Relative mFcγRII-binding activity (MB630 = 1) (mouse FcγRII [1]): 1.41 fold
Relative mFcγRIII-binding activity (MB630 = 1) (mouse FcγRIII [2]): 1.48 fold
relative mFcγRII-binding activity (mIgG1 = 1) (mouse FcγRII [3]): 18.5 fold
relative mFcγRIII-binding activity (mIgG1 = 1) (mouse FcγRIII [4]): 0.34 fold

B6: MB828 (antibody, mouse IgG1, kappa)
heavy: QVQLQESGPGLVKPSETLSLTCAVSGHSISHDHAWSWVRQPPGEGLEWIGFISYSGITNYNPSLQGRVTISRDNSKNTLYLQMNSLRAEDTAVYYCARSLARTTAMDYWGEGTLVTVSSAKTTPPSVYPLAPGSAAQTNSMVTLGCLVKGYFPEPVTVTWNSGSLSSGVHTFPAVLQSDLYTLSSSVTVPSSTWPSETVTCNVAHPASSTKVDKKIVPRDCGCKPCICEPNEVELVFIFPPKPKDVLTITLTPKVTCVVVDISKDDPEVQFSWFVDDVEVHTAQTQPREEQFNSTFRSVSELPIMHQDWLNGKEFKCRVNSAGFPAPIYKTISKTKGRPKAPQVYTIPPPKEQMAKDKVSLTCMITDFFPEDITVEWQWNGQPAENYKNTQPIMDTDGSYFVYSKLNVQKSNWEAGNTFTCSVLHEGLHNHHTEKSLSHSPGK
light: not shown
notes: as for B1
Relative mFcγRII-binding activity (MB630 = 1) (mouse FcγRII [1]): 2.16 fold
Relative mFcγRIII-binding activity (MB630 = 1) (mouse FcγRIII [2]): 2.14 fold
relative mFcγRII-binding activity (mIgG1 = 1) (mouse FcγRII [3]): 28.4 fold
relative mFcγRIII-binding activity (mIgG1 = 1) (mouse FcγRIII [4]): 0.49 fold

B8: MB829 (antibody, mouse IgG1, kappa)
heavy: QVQLQESGPGLVKPSETLSLTCAVSGHSISHDHAWSWVRQPPGEGLEWIGFISYSGITNYNPSLQGRVTISRDNSKNTLYLQMNSLRAEDTAVYYCARSLARTTAMDYWGEGTLVTVSSAKTTPPSVYPLAPGSAAQTNSMVTLGCLVKGYFPEPVTVTWNSGSLSSGVHTFPAVLQSDLYTLSSSVTVPSSTWPSETVTCNVAHPASSTKVDKKIVPRDCGCKPCICEPNEVELVFIFPPKPKDVLTITLTPKVTCVVVDISKDDPEVQFSWFVDDVEVHTAQTQPREEQFNSTFRSVSELPIMHQDWLNGKEFKCRVNSAGFPAPIERTISKTKGRPKAPQVYTIPPPKEQMAKDKVSLTCMITDFFPEDITVEWQWNGQPAENYKNTQPIMDTDGSYFVYSKLNVQKSNWEAGNTFTCSVLHEGLHNHHTEKSLSHSPGK
light: not shown
notes: as for B1
Relative mFcγRII-binding activity (MB630 = 1) (mouse FcγRII [1]): 2.57 fold
Relative mFcγRIII-binding activity (MB630 = 1) (mouse FcγRIII [2]): 2.75 fold
relative mFcγRII-binding activity (mIgG1 = 1) (mouse FcγRII [3]): 33.8 fold
relative mFcγRIII-binding activity (mIgG1 = 1) (mouse FcγRIII [4]): 0.63 fold

Further lines, results first:

Relative mFcγRII-binding activity (MB630 = 1) (mouse FcγRII [1]): 1.7 fold
Relative mFcγRIII-binding activity (MB630 = 1) (mouse FcγRIII [2]): 1.71 fold
relative mFcγRII-binding activity (mIgG1 = 1) (mouse FcγRII [3]): 22.3 fold
relative mFcγRIII-binding activity (mIgG1 = 1) (mouse FcγRIII [4]): 0.39 fold
B2: MB831 (antibody, mouse IgG1, kappa)
heavy: QVQLQESGPGLVKPSETLSLTCAVSGHSISHDHAWSWVRQPPGEGLEWIGFISYSGITNYNPSLQGRVTISRDNSKNTLYLQMNSLRAEDTAVYYCARSLARTTAMDYWGEGTLVTVSSAKTTPPSVYPLAPGSAAQTNSMVTLGCLVKGYFPEPVTVTWNSGSLSSGVHTFPAVLQSDLYTLSSSVTVPSSTWPSETVTCNVAHPASSTKVDKKIVPRDCGCKPCICEPNEVELVFIFPPKPKDVLTITLTPKVTCVVVDISKDDPEVQFSWFVDDVEVHTAQTQPREEQFNSTFRSVSELPIMHQDWLNGKEFKCRVNSAAFPAFIERTISKTKGRPKAPQVYTIPPPKEQMAKDKVSLTCMITDFFPEDITVEWQWNGQPAENYKNTQPIMDTDGSYFVYSKLNVQKSNWEAGNTFTCSVLHEGLHNHHTEKSLSHSPGK
light: not shown
notes: as for B1

Relative mFcγRII-binding activity (MB630 = 1) (mouse FcγRII [1]): 0.4 fold
Relative mFcγRIII-binding activity (MB630 = 1) (mouse FcγRIII [2]): 0.4 fold
relative mFcγRII-binding activity (mIgG1 = 1) (mouse FcγRII [3]): 5.2 fold
relative mFcγRIII-binding activity (mIgG1 = 1) (mouse FcγRIII [4]): 0.09 fold
B3: MB832 (antibody, mouse IgG1, kappa)
heavy: QVQLQESGPGLVKPSETLSLTCAVSGHSISHDHAWSWVRQPPGEGLEWIGFISYSGITNYNPSLQGRVTISRDNSKNTLYLQMNSLRAEDTAVYYCARSLARTTAMDYWGEGTLVTVSSAKTTPPSVYPLAPGSAAQTNSMVTLGCLVKGYFPEPVTVTWNSGSLSSGVHTFPAVLQSDLYTLSSSVTVPSSTWPSETVTCNVAHPASSTKVDKKIVPRDCGCKPCICEPNEVELVFIFPPKPKDVLTITLTPKVTCVVVDISKDDPEVQFSWFVDDVEVHTAQTQPREEQFNSTFRSVSELPIMHQDWLNGKEFKCRVNSAAFPAYIYKTISKTKGRPKAPQVYTIPPPKEQMAKDKVSLTCMITDFFPEDITVEWQWNGQPAENYKNTQPIMDTDGSYFVYSKLNVQKSNWEAGNTFTCSVLHEGLHNHHTEKSLSHSPGK
light: not shown
notes: as for B1

Relative mFcγRII-binding activity (MB630 = 1) (mouse FcγRII [1]): 0.37 fold
Relative mFcγRIII-binding activity (MB630 = 1) (mouse FcγRIII [2]): 0.36 fold
relative mFcγRII-binding activity (mIgG1 = 1) (mouse FcγRII [3]): 4.8 fold
relative mFcγRIII-binding activity (mIgG1 = 1) (mouse FcγRIII [4]): 0.08 fold
B7: MB830 (antibody, mouse IgG1, kappa)
heavy: QVQLQESGPGLVKPSETLSLTCAVSGHSISHDHAWSWVRQPPGEGLEWIGFISYSGITNYNPSLQGRVTISRDNSKNTLYLQMNSLRAEDTAVYYCARSLARTTAMDYWGEGTLVTVSSAKTTPPSVYPLAPGSAAQTNSMVTLGCLVKGYFPEPVTVTWNSGSLSSGVHTFPAVLQSDLYTLSSSVTVPSSTWPSETVTCNVAHPASSTKVDKKIVPRDCGCKPCICEPNEVELVFIFPPKPKDVLTITLTPKVTCVVVDISKDDPEVQFSWFVDDVEVHTAQTQPREEQFNSTFRSVSELPIMHQDWLNGKEFKCRVNSAAFPAFIYKTISKTKGRPKAPQVYTIPPPKEQMAKDKVSLTCMITDFFPEDITVEWQWNGQPAENYKNTQPIMDTDGSYFVYSKLNVQKSNWEAGNTFTCSVLHEGLHNHHTEKSLSHSPGK
light: not shown
notes: as for B1
